# B1: S15-FX (Fc fusion)
# chain 1: QVQLLESGGGLVQPGGSLRLSCAASGFTFSSYAMSWVRQAPGKGLEWASAISGSGGSTYYADSVEGRFTISRDNSKNTLYLQMNSLRAEDTAVYYCAKDTGYCGDDCYIKLIRGGPDYWGQGTLVTVSS
# chain 2: DIVMTQSPLSLPVTLGQPASISCRSSQSLVYSDGNTFLNWFQQRPGQSPRRLIYQVSNRDSGVPDRFSGSGSGTDFTLKISRVEAEDVGVYYCMQGTHWPRTFGQGTKLEIK
# modifications: N-linked glycan at Asn297 devoid of core α-1,3-fucose and β-1,2-xylose; predominantly complex GnGn (52%–54%) and M5-M9 high mannose type (22%–24%); ~15% unglycosylated sites
# B2: S15-HDEL (Fc fusion)
# chain 1: B1 chain 1
# chain 2: B1 chain 2
# modifications: N-linked glycan at Asn297: 88%–92% high-mannose-type N-glycans, less than 2% with α-1,3-fucose and β-1,2-xylose
# B3: S15 (plant-produced COVA2-15, single-chain (sc)Fv-Fc format) (Fc fusion)
# chain 1: B1 chain 1
# chain 2: B1 chain 2
# modifications: N-linked glycan at Asn297, major glycoforms complex type with α-1,3 fucose and β-1,2-xylose (GnGnXF)
# B4: S15-YTE (Fc fusion)
# chain 1: B1 chain 1
# chain 2: B1 chain 2
# modifications: N-linked glycan at Asn297, absent in a larger percentage (>10%) of antibodies
# Target: neonatal Fc receptor FcRn (FcRn-SmBiT) (UniProt P55899 24-297)
# Assay: competition with IgG-LgBiT tracer (Lumit FcRn assay)
row,IC50 [µg/mL],Binder
1,19.5,B1
2,8.58,B2
3,32.8,B3
4,11.8,B4

# — article PMC11672753 (2024)
